Test results reported in paper PMC4464074, “The HRDC domain of E. coli RecQ helicase controls single-stranded DNA translocation and double-stranded DNA unwinding rates without affecting mechanoenzymatic coupling”.

How the values were obtained:
Test in all cases: fluorescence anisotropy; SF50: 50 mM Tris-HCl pH 7.5, 50 mM NaCl, 1 mM DTT, 5 mM MgCl2, 50 µg/mL BSA, 25 °C; anisotropy with 10 nM forked duplex
Conditions in all cases: protein: recombinant; label: 3'-fluorescein on fork2; fork: 33 bp duplex with two 21-nt ssDNA arms (3' arm of fork1, 5' arm of fork2)
[1] = target: RecQ523 (Escherichia coli, UniProt P15043 1-523)
[2] = target: RecQWT (Escherichia coli, UniProt P15043 1-609)
[3] = target: RecQY555A (Escherichia coli, UniProt P15043 1-609, Y555A)

B1: forked duplex (fork1/fork2) (mixed)
DNA 1: CGTTGCGCAATTAAGCTCTAAGCCATCCGCAAATTTTTTTTTTTTTTTTTTTTT
DNA 2: TCCTTTTGATAAGAGGTCATTTTTGCGGATGGTTAGAGCTTAATTGCGCAACG
Q: Which Kd [1] does the source give for B1 here?
A: 60 ± 2 nM

Q: And the Kd [2]?
A: 13 ± 4 nM

Q: What about the Kd [3] of the same binder?
A: 46 ± 2 nM
